Reference: publication PMC4546403

B1: Drosophila Smo (dSmo): N95Q (protein)
parent chain: MQYLNFPRMPNIMMFLEVAILCLWVVADASASSAKFGSTTPASAQQSDVELEPINGTLNYRLYAKKGRDDKPWFDGLDSRHIQCVRRARCYPTSNATNTCFGSKLPYELSSLDLTDFHTEKELNDKLNDYYALKHVPKCWAAIQPFLCAVFKPKCEKINGEDMVYLPSYEMCRITMEPCRILYNTTFFPKFLRCNETLFPTKCTNGARGMKFNGTGQCLSPLVPTDTSASYYPGIEGCGVRCKDPLYTDDEHRQIHKLIGWAGSICLLSNLFVVSTFFIDWKNANKYPAVIVFYINLCFLIACVGWLLQFTSGSREDIVCRKDGTLRHSEPTAGENLSCIVIFVLVYYFLTAGMVWFVFLTYAWHWRAMGHVQDRIDKKGSYFHLVAWSLPLVLTITTMAFSEVDGNSIVGICFVGYINHSMRAGLLLGPLCGVILIGGYFITRGMVMLFGLKHFANDIKSTSASNKIHLIIMRMGVCALLTLVFILVAIACHVTEFRHADEWAQSFRQFIICKISSVFEEKSSCRIENRPSVGVLQLHLLCLFSSGIVMSTWCWTPSSIETWKRYIRKKCGKEVVEEVKMPKHKVIAQTWAKRKDFEDKGRLSITLYNTHTDPVGLNFDVNDLNSSETNDISSTWAAYLPQCVKRRMALTGAATGNSSSHGPRKNSLDSEISVSVRHVSVESRRNSVDSQVSVKIAEMKTKVASRSRGKHGGSSSNRRTQRRRDYIAAATGKSSRRRESSTSVESQVIALKKTTYPNASHKVGVFAHHSSKKQHNYTSSMKRRTANAGLDPSILNEFLQKNGDFIFPFLQNQDMSSSSEEDNSRASQKIQDLNVVVKQQEISEDDHDGIKIEELPNSKQVALENFLKNIKKSNESNSNRHSRNSARSQSKKSQKRHLKNPAADLDFRKDCVKYRSNDSLSCSSEELDVALDVGSLLNSSFSGISMGKPHSRNSKTSCDVGIQANPFELVPSYGEDELQQAMRLLNAASRQRTEAANEDFGGTELQGLLGHSHRHQREPTFMSESDKLKMLLLPSK
B2: Drosophila Smo (dSmo): N95Q,N336Q (protein)
parent chain: MQYLNFPRMPNIMMFLEVAILCLWVVADASASSAKFGSTTPASAQQSDVELEPINGTLNYRLYAKKGRDDKPWFDGLDSRHIQCVRRARCYPTSNATNTCFGSKLPYELSSLDLTDFHTEKELNDKLNDYYALKHVPKCWAAIQPFLCAVFKPKCEKINGEDMVYLPSYEMCRITMEPCRILYNTTFFPKFLRCNETLFPTKCTNGARGMKFNGTGQCLSPLVPTDTSASYYPGIEGCGVRCKDPLYTDDEHRQIHKLIGWAGSICLLSNLFVVSTFFIDWKNANKYPAVIVFYINLCFLIACVGWLLQFTSGSREDIVCRKDGTLRHSEPTAGENLSCIVIFVLVYYFLTAGMVWFVFLTYAWHWRAMGHVQDRIDKKGSYFHLVAWSLPLVLTITTMAFSEVDGNSIVGICFVGYINHSMRAGLLLGPLCGVILIGGYFITRGMVMLFGLKHFANDIKSTSASNKIHLIIMRMGVCALLTLVFILVAIACHVTEFRHADEWAQSFRQFIICKISSVFEEKSSCRIENRPSVGVLQLHLLCLFSSGIVMSTWCWTPSSIETWKRYIRKKCGKEVVEEVKMPKHKVIAQTWAKRKDFEDKGRLSITLYNTHTDPVGLNFDVNDLNSSETNDISSTWAAYLPQCVKRRMALTGAATGNSSSHGPRKNSLDSEISVSVRHVSVESRRNSVDSQVSVKIAEMKTKVASRSRGKHGGSSSNRRTQRRRDYIAAATGKSSRRRESSTSVESQVIALKKTTYPNASHKVGVFAHHSSKKQHNYTSSMKRRTANAGLDPSILNEFLQKNGDFIFPFLQNQDMSSSSEEDNSRASQKIQDLNVVVKQQEISEDDHDGIKIEELPNSKQVALENFLKNIKKSNESNSNRHSRNSARSQSKKSQKRHLKNPAADLDFRKDCVKYRSNDSLSCSSEELDVALDVGSLLNSSFSGISMGKPHSRNSKTSCDVGIQANPFELVPSYGEDELQQAMRLLNAASRQRTEAANEDFGGTELQGLLGHSHRHQREPTFMSESDKLKMLLLPSK
B3: Drosophila Smo (dSmo): N195Q (protein)
parent chain: MQYLNFPRMPNIMMFLEVAILCLWVVADASASSAKFGSTTPASAQQSDVELEPINGTLNYRLYAKKGRDDKPWFDGLDSRHIQCVRRARCYPTSNATNTCFGSKLPYELSSLDLTDFHTEKELNDKLNDYYALKHVPKCWAAIQPFLCAVFKPKCEKINGEDMVYLPSYEMCRITMEPCRILYNTTFFPKFLRCNETLFPTKCTNGARGMKFNGTGQCLSPLVPTDTSASYYPGIEGCGVRCKDPLYTDDEHRQIHKLIGWAGSICLLSNLFVVSTFFIDWKNANKYPAVIVFYINLCFLIACVGWLLQFTSGSREDIVCRKDGTLRHSEPTAGENLSCIVIFVLVYYFLTAGMVWFVFLTYAWHWRAMGHVQDRIDKKGSYFHLVAWSLPLVLTITTMAFSEVDGNSIVGICFVGYINHSMRAGLLLGPLCGVILIGGYFITRGMVMLFGLKHFANDIKSTSASNKIHLIIMRMGVCALLTLVFILVAIACHVTEFRHADEWAQSFRQFIICKISSVFEEKSSCRIENRPSVGVLQLHLLCLFSSGIVMSTWCWTPSSIETWKRYIRKKCGKEVVEEVKMPKHKVIAQTWAKRKDFEDKGRLSITLYNTHTDPVGLNFDVNDLNSSETNDISSTWAAYLPQCVKRRMALTGAATGNSSSHGPRKNSLDSEISVSVRHVSVESRRNSVDSQVSVKIAEMKTKVASRSRGKHGGSSSNRRTQRRRDYIAAATGKSSRRRESSTSVESQVIALKKTTYPNASHKVGVFAHHSSKKQHNYTSSMKRRTANAGLDPSILNEFLQKNGDFIFPFLQNQDMSSSSEEDNSRASQKIQDLNVVVKQQEISEDDHDGIKIEELPNSKQVALENFLKNIKKSNESNSNRHSRNSARSQSKKSQKRHLKNPAADLDFRKDCVKYRSNDSLSCSSEELDVALDVGSLLNSSFSGISMGKPHSRNSKTSCDVGIQANPFELVPSYGEDELQQAMRLLNAASRQRTEAANEDFGGTELQGLLGHSHRHQREPTFMSESDKLKMLLLPSK
B4: Drosophila Smo (dSmo): N184Q (protein)
parent chain: MQYLNFPRMPNIMMFLEVAILCLWVVADASASSAKFGSTTPASAQQSDVELEPINGTLNYRLYAKKGRDDKPWFDGLDSRHIQCVRRARCYPTSNATNTCFGSKLPYELSSLDLTDFHTEKELNDKLNDYYALKHVPKCWAAIQPFLCAVFKPKCEKINGEDMVYLPSYEMCRITMEPCRILYNTTFFPKFLRCNETLFPTKCTNGARGMKFNGTGQCLSPLVPTDTSASYYPGIEGCGVRCKDPLYTDDEHRQIHKLIGWAGSICLLSNLFVVSTFFIDWKNANKYPAVIVFYINLCFLIACVGWLLQFTSGSREDIVCRKDGTLRHSEPTAGENLSCIVIFVLVYYFLTAGMVWFVFLTYAWHWRAMGHVQDRIDKKGSYFHLVAWSLPLVLTITTMAFSEVDGNSIVGICFVGYINHSMRAGLLLGPLCGVILIGGYFITRGMVMLFGLKHFANDIKSTSASNKIHLIIMRMGVCALLTLVFILVAIACHVTEFRHADEWAQSFRQFIICKISSVFEEKSSCRIENRPSVGVLQLHLLCLFSSGIVMSTWCWTPSSIETWKRYIRKKCGKEVVEEVKMPKHKVIAQTWAKRKDFEDKGRLSITLYNTHTDPVGLNFDVNDLNSSETNDISSTWAAYLPQCVKRRMALTGAATGNSSSHGPRKNSLDSEISVSVRHVSVESRRNSVDSQVSVKIAEMKTKVASRSRGKHGGSSSNRRTQRRRDYIAAATGKSSRRRESSTSVESQVIALKKTTYPNASHKVGVFAHHSSKKQHNYTSSMKRRTANAGLDPSILNEFLQKNGDFIFPFLQNQDMSSSSEEDNSRASQKIQDLNVVVKQQEISEDDHDGIKIEELPNSKQVALENFLKNIKKSNESNSNRHSRNSARSQSKKSQKRHLKNPAADLDFRKDCVKYRSNDSLSCSSEELDVALDVGSLLNSSFSGISMGKPHSRNSKTSCDVGIQANPFELVPSYGEDELQQAMRLLNAASRQRTEAANEDFGGTELQGLLGHSHRHQREPTFMSESDKLKMLLLPSK
B5: Drosophila Smo (dSmo): N195Q,N336Q (protein)
parent chain: MQYLNFPRMPNIMMFLEVAILCLWVVADASASSAKFGSTTPASAQQSDVELEPINGTLNYRLYAKKGRDDKPWFDGLDSRHIQCVRRARCYPTSNATNTCFGSKLPYELSSLDLTDFHTEKELNDKLNDYYALKHVPKCWAAIQPFLCAVFKPKCEKINGEDMVYLPSYEMCRITMEPCRILYNTTFFPKFLRCNETLFPTKCTNGARGMKFNGTGQCLSPLVPTDTSASYYPGIEGCGVRCKDPLYTDDEHRQIHKLIGWAGSICLLSNLFVVSTFFIDWKNANKYPAVIVFYINLCFLIACVGWLLQFTSGSREDIVCRKDGTLRHSEPTAGENLSCIVIFVLVYYFLTAGMVWFVFLTYAWHWRAMGHVQDRIDKKGSYFHLVAWSLPLVLTITTMAFSEVDGNSIVGICFVGYINHSMRAGLLLGPLCGVILIGGYFITRGMVMLFGLKHFANDIKSTSASNKIHLIIMRMGVCALLTLVFILVAIACHVTEFRHADEWAQSFRQFIICKISSVFEEKSSCRIENRPSVGVLQLHLLCLFSSGIVMSTWCWTPSSIETWKRYIRKKCGKEVVEEVKMPKHKVIAQTWAKRKDFEDKGRLSITLYNTHTDPVGLNFDVNDLNSSETNDISSTWAAYLPQCVKRRMALTGAATGNSSSHGPRKNSLDSEISVSVRHVSVESRRNSVDSQVSVKIAEMKTKVASRSRGKHGGSSSNRRTQRRRDYIAAATGKSSRRRESSTSVESQVIALKKTTYPNASHKVGVFAHHSSKKQHNYTSSMKRRTANAGLDPSILNEFLQKNGDFIFPFLQNQDMSSSSEEDNSRASQKIQDLNVVVKQQEISEDDHDGIKIEELPNSKQVALENFLKNIKKSNESNSNRHSRNSARSQSKKSQKRHLKNPAADLDFRKDCVKYRSNDSLSCSSEELDVALDVGSLLNSSFSGISMGKPHSRNSKTSCDVGIQANPFELVPSYGEDELQQAMRLLNAASRQRTEAANEDFGGTELQGLLGHSHRHQREPTFMSESDKLKMLLLPSK
B6: Drosophila Smo (dSmo): N184Q,N336Q (protein)
parent chain: MQYLNFPRMPNIMMFLEVAILCLWVVADASASSAKFGSTTPASAQQSDVELEPINGTLNYRLYAKKGRDDKPWFDGLDSRHIQCVRRARCYPTSNATNTCFGSKLPYELSSLDLTDFHTEKELNDKLNDYYALKHVPKCWAAIQPFLCAVFKPKCEKINGEDMVYLPSYEMCRITMEPCRILYNTTFFPKFLRCNETLFPTKCTNGARGMKFNGTGQCLSPLVPTDTSASYYPGIEGCGVRCKDPLYTDDEHRQIHKLIGWAGSICLLSNLFVVSTFFIDWKNANKYPAVIVFYINLCFLIACVGWLLQFTSGSREDIVCRKDGTLRHSEPTAGENLSCIVIFVLVYYFLTAGMVWFVFLTYAWHWRAMGHVQDRIDKKGSYFHLVAWSLPLVLTITTMAFSEVDGNSIVGICFVGYINHSMRAGLLLGPLCGVILIGGYFITRGMVMLFGLKHFANDIKSTSASNKIHLIIMRMGVCALLTLVFILVAIACHVTEFRHADEWAQSFRQFIICKISSVFEEKSSCRIENRPSVGVLQLHLLCLFSSGIVMSTWCWTPSSIETWKRYIRKKCGKEVVEEVKMPKHKVIAQTWAKRKDFEDKGRLSITLYNTHTDPVGLNFDVNDLNSSETNDISSTWAAYLPQCVKRRMALTGAATGNSSSHGPRKNSLDSEISVSVRHVSVESRRNSVDSQVSVKIAEMKTKVASRSRGKHGGSSSNRRTQRRRDYIAAATGKSSRRRESSTSVESQVIALKKTTYPNASHKVGVFAHHSSKKQHNYTSSMKRRTANAGLDPSILNEFLQKNGDFIFPFLQNQDMSSSSEEDNSRASQKIQDLNVVVKQQEISEDDHDGIKIEELPNSKQVALENFLKNIKKSNESNSNRHSRNSARSQSKKSQKRHLKNPAADLDFRKDCVKYRSNDSLSCSSEELDVALDVGSLLNSSFSGISMGKPHSRNSKTSCDVGIQANPFELVPSYGEDELQQAMRLLNAASRQRTEAANEDFGGTELQGLLGHSHRHQREPTFMSESDKLKMLLLPSK

Assay: immunofluorescence, Hh-induced plasma membrane vs ER marker, Cl8
Details: glycan lost; control: wild type dSmo

localisation_or_trafficking, decreases:
B2
B5
B6

localisation_or_trafficking, no change:
B1
B3
B4
